Values belong to the binder of their own block, whether it stands above or below them.
Molecular target: T1, recombinant KIR2DL1 (extracellular domain-Fc-Avi, in-house) (human)
T1 construct: IL-2 signal peptide left out; also called soluble KIR2DL1
Experiment: flow cytometry, KIR-Fc 0.1 µM on scFv-K562 cells

T1 sequence (chain, as listed by the source): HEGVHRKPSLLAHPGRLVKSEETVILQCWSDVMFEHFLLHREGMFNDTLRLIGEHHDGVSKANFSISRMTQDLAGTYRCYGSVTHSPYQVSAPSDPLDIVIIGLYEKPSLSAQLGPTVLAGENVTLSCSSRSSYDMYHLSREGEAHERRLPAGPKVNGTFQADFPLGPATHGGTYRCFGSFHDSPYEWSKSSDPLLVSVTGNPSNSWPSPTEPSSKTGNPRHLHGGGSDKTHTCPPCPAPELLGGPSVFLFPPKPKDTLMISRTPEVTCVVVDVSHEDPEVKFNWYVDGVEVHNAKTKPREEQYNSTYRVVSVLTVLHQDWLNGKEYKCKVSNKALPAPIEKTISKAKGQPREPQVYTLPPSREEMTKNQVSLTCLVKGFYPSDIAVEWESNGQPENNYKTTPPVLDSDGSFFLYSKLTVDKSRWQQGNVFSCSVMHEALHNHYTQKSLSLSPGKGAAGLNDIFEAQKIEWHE

binding result: binds
B1: membrane-type a2DL1-DS11 scFv (scFv)
scFv: DYKDDDDKGSGEVQLVQSGAEVKKPGSSVKVSCKASGGTFSSYAISWVRQAPGQGLEWMGGIIPIFGTANYAQKFQGRVTITADESTSTAYMELSSLRSEDTAVYYCARGLRFFDYWGQGTLVTVSSGGGGSGGGGSGGGGSQSVLTQPPSASGTPGQRVTISCSGSSSNIGTNTVNWYQQFPGTAPKLLIYSNNQRPSGVPDRFSGSKSGTSGSLAISGLQSEDEADYYCAAWDDSLQGWLFGGGTKLTVLALSNSIMYFSHFVPVFLPAKPTTTPAPRPPTPAPTIASQPLSLRPEACRPAAGGAVHTRGLDFACDIYIWAPLAGTCGVLLLSLVITLYCNH
notes: On K562 cells

binding result: binds
B2: membrane-type a2DL1-DS1 scFv (scFv)
scFv: DYKDDDDKGSGQVQLQQSGPELVRASQTLSLTCAISGDSVSSNSATWNWIRQSPSRGLEWLGRTYYRSKWYNDYAVSVKSRITINPDTSKNQFSLQLNSVTPEDTAVYYCARDSPSYGRGVFDIWGQGTLVTVSSGGGGSGGGGSGGGGSDIVMTQSPDSLAVSLGERATINCKSSQSVLYSSNNKNYLAWYQQKPGQPPKLLIYWASTRESGVPDRFSGSGSGTDFTLTISSLQAEDVAVYYCQQYYSPPYTFGQGTKLEIKALSNSIMYFSHFVPVFLPAKPTTTPAPRPPTPAPTIASQPLSLRPEACRPAAGGAVHTRGLDFACDIYIWAPLAGTCGVLLLSLVITLYCNH
notes: On K562 cells
